Source: the supplement of paper PMC10567573

B1: POLD4 (parent)
chain: ITDSYPVVKRREGPAGHSKGELAP

Variants of: B1
Test: protein stability index of a GFP-peptide fusion (GPS, HEK-293T) (PSI 1-6); higher = more stable
Conditions: c terminus: a fixed tail appended
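Further: lentivirally expressed fusions sorted by FACS into six bins by GFP to DsRed ratio, PSI derived from sequencing read proportions per bin multiplied by bin number.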

Protein stability index, by site and new letter:
K9: P 4.26; S 4.41; T 4.71; M 4.06; V 4.06; R 3.25; E 4.83; I 3.8; F 3.1; W 4.14; H 2.72; A 4.65; D 4.63; Y 4.15; G 5.01; C 3.95
P14: I 3.1; T 3.57; V 1.93; L 3.24; H 3.84; R 2.46; N 3.55; A 3.82; M 3.06; F 3.28; W 2.84; K 2.97; C 3.14; G 2.98; Y 2.81; E 4.1; S 2.43; Q 3.89; D 2.94
V7: P 5.22; W 4.17; F 3.45; D 4.8; I 3.42; K 3.56; A 4.02; L 3.44; G 4.93; N 4.2; E 5.27; H 4.4; C 3.63; T 4.18; S 4.76; Q 3.79; Y 4.14
A15: C 2.8; D 2.81
V8: Q 3.1; F 4.32; S 4.84; T 4.42; M 3.98; R 2.88; N 4.21; W 3.16; E 5.31; H 4.07; Y 4.34; C 3.79; I 3.26; D 5.21; P 4.35; K 3.2
P6: S 3.53; A 3.48; F 3.52; H 5; T 4.55; E 4.33; R 2.94; G 4.67; I 4.17; N 4.51; L 3.75; D 5.12; W 3.4
E12: A 2.52; P 3.26; Q 4.16; T 3.41; H 2.72; V 2.72; C 2.1; W 2.88; M 2.87; N 2.85; K 3.11; Y 2.48; L 2.87; S 2.69; D 3.08; I 3.53; G 3.01; R 2.65; F 1.86
G13: T 3.19; E 3.86; P 4.43; R 3.7; V 2.62; A 2.92; D 3.94; Y 3.11; Q 3.32; I 2.7; L 2.75; F 2.45; W 2.5; S 3.22; H 3.24; N 2.78; C 3.87
Y5: R 4.72; V 4.23; L 4.59; W 3.08; Q 5.68; M 3.5; N 4.98; S 4.91; P 5.13; T 3.5
R10: C 3.79; G 4.21; L 3.64; E 4.8; N 3.92; K 2.39; H 4.33; V 3.94; P 4.68; A 4.56; Q 3.8; I 3.38; S 3.89; F 3.57; W 3.07; T 3.6; D 4.98; M 3.16; Y 4.05
R11: G 3.79; V 2.69; E 5.14; H 3.28; T 3.33; S 3.23; I 3.76; Y 3.36; Q 4.37; A 3.23; L 2.98; C 3.68; K 3.54; W 3.46; N 3.28; F 2.43; P 3.28; M 2.87; D 4.79
